B1: L2*-HypA (Met1_His2insLeu variant of Helicobacter pylori HypA) (natural protein)
chain: MLHEYSVVSSLIALCEEHAKKNQAHKIERVVVGIGERSAMDKSLFVSAFETFREESLVCKDAILDIVDEKVELECKDCSHVFKPNALDYGVCEKCHSKNVIITQGNEMRLLSLEMLAE
B2: WT-HypA (Helicobacter pylori hydrogenase maturation protein HypA, unmodified N-terminus) (natural protein)
chain: MHEYSVVSSLIALCEEHAKKNQAHKIERVVVGIGERSAMDKSLFVSAFETFREESLVCKDAILDIVDEKVELECKDCSHVFKPNALDYGVCEKCHSKNVIITQGNEMRLLSLEMLAE

Target: T1, WT-UreE dimer (Helicobacter pylori urease accessory protein UreE) (Helicobacter pylori, UniProt Q09064 1-170)
T1 sequence: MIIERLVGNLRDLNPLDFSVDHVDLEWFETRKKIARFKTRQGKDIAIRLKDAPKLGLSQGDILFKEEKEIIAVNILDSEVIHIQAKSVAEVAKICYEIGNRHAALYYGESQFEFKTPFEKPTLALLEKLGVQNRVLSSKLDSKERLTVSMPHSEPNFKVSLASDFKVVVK
Assay: ITC

| Binder | Kd | dH | stoichiometry N |
| --- | --- | --- | --- |
| B1 | 690 ± 110 nM | -3.86 ± 0.06 kcal/mol | 1.6 ± 0.2 HypA per UreE dimer |
| B2 | 960 ± 90 nM | -6.27 ± 0.06 kcal/mol | 1.5 ± 0.1 HypA per UreE dimer |

— article PMC5540134 (Biochemistry, 2017)
